Reference: patent US20110008356A1
Each block holds one binder with its values, some of them ahead of it.

Key:
[1] = target: Human IL-17RA:Fc (human), Q96F46; test: SPR (BIAcore 3000), receptor:Fc captured by anti-human Fc, cytokine as analyte, koff/kon, 1:1 Langmuir fit; details: remark: other sources report otherwise
[2] = target: Human IL-17RC:Fc (human) (UniProt Q8NAC3); test: as above

Kd [1]: 100 nM
B1: Human IL-17F, Q96PD4 31-163 (ligand, UniProt Q96PD4 31-163, looked up)
chain: RKIPKVGHTFFQKPESCPPVPGGSMKLDIGIINENQRVSMSRNIESRSTSPWNYTVTWDPNRYPSEVVQAQCRNLGCINAQGKEDISMNSVPIQQETLVVRRKHQGCSVSFQLEKVLVTVGCTCVTPVIHHVQ

Kd [2]: 0.1 nM
B2: Human IL-17F (ligand, UniProt Q96PD4 31-163, looked up)
chain: B1 chain
